Assay results published in PMC4253958.
Each block holds one substance with its values, some of them ahead of it.

Assays:
[1] = molecular target: APPΔF616, N-terminally myc-tagged APP695 (human) (UniProt P05067)
[2] = molecular target: APP-D8, N-terminally myc-tagged APP695 (human) (UniProt P05067)
[3] = molecular target: APPΔS622, N-terminally myc-tagged APP695 (human) (UniProt P05067)

S2 cell aggregation assay: clustered transfected cells, compared to APPwt expressing cells [1]: > 2 fold
Substance: APPΔF616, N-terminally myc-tagged APP695 (from UniProt P05067-4 18-695) (natural protein)

S2 cell aggregation assay: clustered transfected cells, compared to APPwt expressing cells [2]: 2 fold
Substance: APP-D8, N-terminally myc-tagged APP695 (from UniProt P05067-4 18-695) (natural protein)

S2 cell aggregation assay: clustered transfected cells, compared to APPwt expressing cells [3]: > 2 fold
Substance: APPΔS622, N-terminally myc-tagged APP695 (from UniProt P05067-4 18-695) (natural protein)
